Test results taken from the supplement of paper PMC7877785.
± gives the uncertainty stated by the source.

Assay: self-splicing fitness, log relative to wild type (ln ratio); higher = more splicing; Tetrahymena group I intron in knt gene, E. coli kanamycin selection, DiMSum; sequences stand for … in CUCUCU…GGAGGGAAAAGUUAUCAGGCAUGCACCUGGUAGCUAGUCUUUAAACCAAUAGAUUGCAUCGGUUUAAAAGGCAAGACCGUCAAAUUGCGGGAAAGGGGUCAACAGCCGUUCAGUACCAAGUCUCAGGGGAAACUUUGAGAUGGCCUUGCAAAGGGUAUGGUAAUAAGCUGACGGACAUGGUCCUAACCACGCAGCCAAGUCCUAAGUCAACAGAUCUUCUGUUGAUAUGGAUGCAGUUCACAGACUAAAUGUCGGUCGGGGAAGAUGUAUUCUUCUCAUAAGAUAUAGUCGGACCUCUCCUUAAUGGGAGCUAGCGGAUGAAGUGAUGCAACACUGGAGCCGCUGGGAACUAAUUUGUAUGCGAAAGUAUAUUGAUUAGUUUUGGAGUACUCGUGGUCG
Summary of the method: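 DiMSum derived fitness as the error-weighted combination of fold changes across replicates, kanamycin versus no kanamycin, normalised to wild type. E. coli BL21(DE3) held the library, which randomised all eight P1ex-region intron nucleotides within the knt kanamycin-resistance gene on pET-22b(+). Six replicate transformations grew overnight at 37°C or 30°C on LB agar with or without 25 μg/mL kanamycin, also containing 100 μg/mL carbenicillin, 50 μM IPTG and 0.2% rhamnose, and pooled colonies were amplicon-sequenced on an Illumina HiSeq 2500.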

Row | Sequence | self-splicing fitness (ln) (30 °C) | self-splicing fitness (ln) (37 °C)
1 | CUAAAGCAAUAUUACGUCAU | -4.85 ± 0.31 | -2.78 ± 0.23
2 | GAUAAGCAAUAUUACGUUUC | -3.88 ± 0.18 | -2.34 ± 0.2
3 | CAUCAGCAAUAUUACGACUG | -0.425 ± 0.084 | -0.238 ± 0.098
4 | AUACAGCAAUAUUACGCCGG | -2.34 ± 0.17 | -1.38 ± 0.21
5 | CUAAAGCAAUAUUACGUGAG | -0.0713 ± 0.047 | -0.2 ± 0.066
6 | GAUUAGCAAUAUUACGGUCC | -3.27 ± 0.39 | –
7 | CCAGAGCAAUAUUACGCUUU | -3.36 ± 0.27 | -1.71 ± 0.17
8 | UAUAAGCAAUAUUACGAUUA | -0.327 ± 0.073 | 0.291 ± 0.098
9 | AACCAGCAAUAUUACGCUCC | -0.493 ± 0.094 | -0.0692 ± 0.12
10 | GGGUAGCAAUAUUACGUAUC | -1.3 ± 0.21 | -0.963 ± 0.24
11 | CGAGAGCAAUAUUACGAUCC | -3.95 ± 0.46 | -2.36 ± 0.28
12 | CUCUAGCAAUAUUACGUAAG | -1.57 ± 0.11 | -0.426 ± 0.15
13 | ACUAAGCAAUAUUACGGAUU | -2.79 ± 0.14 | -1.1 ± 0.11
14 | ACAGAGCAAUAUUACGCUGC | -4.55 ± 0.46 | –
15 | UCAGAGCAAUAUUACGCGCC | -2.37 ± 0.46 | –
16 | UCACAGCAAUAUUACGCGGU | -4.02 ± 0.13 | -2.63 ± 0.13
17 | CUCUAGCAAUAUUACGCAGU | -4.21 ± 0.24 | -4.07 ± 0.23
18 | AAACAGCAAUAUUACGUUCC | -2.55 ± 0.16 | -1.13 ± 0.19
19 | GGUAAGCAAUAUUACGAGUG | -2 ± 0.16 | -3.17 ± 0.13
20 | UGUGAGCAAUAUUACGCGUA | -2.35 ± 0.34 | -0.703 ± 0.27
21 | UAUCAGCAAUAUUACGAUCG | -0.364 ± 0.095 | 0.612 ± 0.14
22 | GCAAAGCAAUAUUACGGCCU | -0.867 ± 0.12 | -0.967 ± 0.16
23 | UGGGAGCAAUAUUACGUGCC | -2.29 ± 0.34 | -2.09 ± 0.35
24 | AGAUAGCAAUAUUACGUUAA | -2.88 ± 0.18 | -2.01 ± 0.18
25 | UAUGAGCAAUAUUACGAUUC | – | -1.6 ± 0.45
26 | ACACAGCAAUAUUACGUUGC | -3.87 ± 0.11 | -2.58 ± 0.12

Row | Sequence | self-splicing fitness (ln) (30 °C) | self-splicing fitness (ln) (37 °C)
27 | AGGUAGCAAUAUUACGUCUA | -0.666 ± 0.015 | -0.259 ± 0.033
28 | UAAGAGCAAUAUUACGGCGG | -2.73 ± 0.22 | -1.62 ± 0.22
29 | AUGUAGCAAUAUUACGAGGC | – | -1.47 ± 0.28
30 | GAGCAGCAAUAUUACGUGUA | -2 ± 0.12 | -0.876 ± 0.094
31 | UGCCAGCAAUAUUACGGGCU | -2.6 ± 0.19 | -1.61 ± 0.18
32 | ACAUAGCAAUAUUACGGAUA | -1.75 ± 0.17 | -2.34 ± 0.21
33 | CGGCAGCAAUAUUACGGUCG | -3.51 ± 0.27 | -2.94 ± 0.33
34 | GAGCAGCAAUAUUACGAAAA | -2.68 ± 0.39 | –
35 | UUUCAGCAAUAUUACGGGCG | -1.02 ± 0.098 | 0.331 ± 0.14
36 | CCUGAGCAAUAUUACGGUAU | -3.02 ± 0.16 | -2.61 ± 0.21
37 | UCAUAGCAAUAUUACGGUUA | -1.37 ± 0.14 | -0.36 ± 0.11
38 | CACAAGCAAUAUUACGAAUU | -3.63 ± 0.26 | -2.75 ± 0.21
39 | ACCCAGCAAUAUUACGCGGA | -0.326 ± 0.05 | 0.218 ± 0.064
40 | UACAAGCAAUAUUACGACUG | -0.079 ± 0.063 | 0.278 ± 0.092
41 | CGUCAGCAAUAUUACGCGAC | -2.57 ± 0.49 | –
42 | AUAUAGCAAUAUUACGAUUC | -1.29 ± 0.19 | -0.0451 ± 0.23
43 | AUAGAGCAAUAUUACGUACG | -2.22 ± 0.2 | -1.53 ± 0.23
44 | GUAUAGCAAUAUUACGAUGU | -1.07 ± 0.12 | -0.00633 ± 0.17
45 | CAGUAGCAAUAUUACGAACA | -3.3 ± 0.48 | -2.86 ± 0.41
46 | GCCUAGCAAUAUUACGAAGG | -3.05 ± 0.17 | -2.65 ± 0.3
47 | CUCAAGCAAUAUUACGGUUA | -2.78 ± 0.2 | -2.81 ± 0.2
48 | GGGCAGCAAUAUUACGGAGA | -4.44 ± 0.46 | -2.56 ± 0.22
49 | GCUGAGCAAUAUUACGCUGU | – | -2.51 ± 0.49
50 | GCUUAGCAAUAUUACGGCUC | -0.359 ± 0.098 | 0.0516 ± 0.12
51 | AUAAAGCAAUAUUACGCGGG | -2.55 ± 0.13 | -1.4 ± 0.16
52 | GAUGAGCAAUAUUACGAUAA | -3.49 ± 0.43 | -1.6 ± 0.33

Row | Sequence | self-splicing fitness (ln) (30 °C) | self-splicing fitness (ln) (37 °C)
53 | UACAAGCAAUAUUACGCUGA | -2.32 ± 0.13 | -1.78 ± 0.13
54 | GCACAGCAAUAUUACGAACC | -0.135 ± 0.15 | 0.621 ± 0.18
55 | CCCAAGCAAUAUUACGUGGU | -3.27 ± 0.087 | -1.86 ± 0.084
56 | CGGUAGCAAUAUUACGGCUC | -1.15 ± 0.079 | -0.532 ± 0.11
57 | CGGUAGCAAUAUUACGUCGG | -0.5 ± 0.095 | 0.638 ± 0.12
58 | UUCUAGCAAUAUUACGAAGG | -2.9 ± 0.19 | -2.38 ± 0.39
59 | GACGAGCAAUAUUACGCGCU | -3.04 ± 0.48 | -2.87 ± 0.31
60 | CGACAGCAAUAUUACGAUCU | -0.335 ± 0.1 | 0.552 ± 0.094
61 | UCUAAGCAAUAUUACGACGC | -0.443 ± 0.12 | -0.398 ± 0.21
62 | CUCCAGCAAUAUUACGAUAU | -2.46 ± 0.19 | -2.95 ± 0.47
63 | GUAUAGCAAUAUUACGAUUU | -1.63 ± 0.11 | 0.247 ± 0.13
64 | GUCGAGCAAUAUUACGCAGA | -2.79 ± 0.32 | -1.61 ± 0.39
65 | GCUUAGCAAUAUUACGGUGA | -1.46 ± 0.092 | -1.75 ± 0.1
66 | GCCGAGCAAUAUUACGAACC | -0.807 ± 0.22 | 0.455 ± 0.41
67 | AGGAAGCAAUAUUACGUGGU | -3.36 ± 0.15 | -2.61 ± 0.25
68 | GAAUAGCAAUAUUACGUGGU | -3.01 ± 0.15 | -2.74 ± 0.24
69 | GUUAAGCAAUAUUACGCAGA | -2.33 ± 0.14 | -2.85 ± 0.14
70 | CAUAAGCAAUAUUACGCAUC | – | -3.39 ± 0.43
71 | AUGCAGCAAUAUUACGUACA | -0.892 ± 0.064 | -0.686 ± 0.076
72 | CUCAAGCAAUAUUACGGUAU | -3.61 ± 0.17 | -2.08 ± 0.17
73 | GACCAGCAAUAUUACGAAUU | -0.37 ± 0.073 | -0.374 ± 0.1
74 | ACAAAGCAAUAUUACGGGCG | -0.625 ± 0.05 | 0.111 ± 0.067
75 | GCCCAGCAAUAUUACGUCCC | -1.49 ± 0.17 | 0.384 ± 0.17
76 | UUACAGCAAUAUUACGUGCU | -3.78 ± 0.2 | -2.26 ± 0.23
77 | UGCGAGCAAUAUUACGGCCG | -1 ± 0.38 | –
78 | CCAAAGCAAUAUUACGACAU | -3.658 ± 0.02 | -2.82 ± 0.037
